{"source": "the RNAGym collection of RNA variant scans (doi:10.1073/pnas.2313332121)", "parents": {"B1": {"name": "TPR 5TU (parent)", "chain": "GGAUCUUCUCGAUCUAACAAAAAAGACAAAUCUGCCACAAAGCUUGAGAGCAUCUUCGGAUGCAGAGGCGGCAGCCUUCGGUGGCGCGAUAGCGCCAACGUUCUCAACUAUGACACGCAAAACGCGUGCUCCGUUGAAUGGAGUUUAUCAUG"}}, "note": "Variants at the floor of the assay were thinned out.", "data": [{"variants_of": "B1", "assay": "polymerase ribozyme fitness, log enrichment relative to wild type (log ratio); higher = more active; in vitro selection for triplet polymerase activity", "procedure,_shortened": "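Mutant libraries of each subunit of a heterodimeric triplet polymerase ribozyme were built by PCR and transcribed. Each library went through one round of in vitro selection in triplicate: annealing with biotinylated primer, partner subunit and triplets, frozen incubation at −7 °C, gel excision of extended constructs, streptavidin-bead capture and RT-PCR. Input and output libraries were Illumina-sequenced; only genotypes with ≥10 input reads and ≥1 read per output were kept. Fitness is log2(genotype enrichment/wild-type enrichment), using inverse-variance-weighted replicate averages.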", "values": [{"variant": "GGAUCUUCUCGAUCUAACAAAAAAGACAAAUCUGCCACAAAGCUUGAGAGCAUGUUCGGAUGCAGAGGCGGCAGCCUUCCAUGGUGCGAUAGCGCCAACGUUCUCAACUAUGACACGCAAAACGCGUGAUCCGUCGAAUGGAGUUUAUCAUG", "polymerase ribozyme fitness (log ratio)": "≤ -4.2"}, {"variant": "GGAUCUUCUCGAUCUAACAAAAAAGACAAAUCUGCCACAAAGCUUGAGAGCAUGUUCGGAUGCAGAGCCGGCAGCCUUCAGUGGCGCGAUAGCUCCAGCGUUCUCAACUAUGACACGCAAAACGCGUGCUCCGUUGAAUGGAGUUUAUCAUG", "polymerase ribozyme fitness (log ratio)": "≤ -4.2"}, {"variant": "GGAUCUUCUCGAUCUAACAAAAAAGACAAAUCUGCCACAAAGCUUGAGAGCAUGUUCGGAUGCAGAGGCGGCAGCCUUCGGUGGCGCGAUAGCGCCAACGUUAUCAACUAUGACACGCAAAACGCGUGCUCCGUUGAAUCGAGUUUAUCAUG", "polymerase ribozyme fitness (log ratio)": "≤ -4.2"}, {"variant": "GGAUCUUCUCGAUCUAACAAAAAAGACAAAUCUGCCACAAAGCUUGAGAGCAUGUUCGGAUGCAGAGGCGGCAGCCUUCGGUGGCGCGAUAGCGCAAACGUUCUCAACUAUGACACGCAAAACGCGUGCUCCGUUGAAUGGAGUUUAUCAUG", "polymerase ribozyme fitness (log ratio)": -2.41}, {"variant": "GGAUCUUCUCGAUCUAACAAAAAAGACAAAUCUGCCACAAAGCUUGAGAGCAUGUUCGGAUGCAGAGGCGGCAGCCUUCGGUGGCGCGAUAGCGCUAACGUUCUCAACUAUGACACGCAAAACGCGUGCUCCGUUGAAUGGAGUUUAUCAUG", "polymerase ribozyme fitness (log ratio)": -1.33}, {"variant": "GGAUCUUCUCGAUCUAACAAAAAAGACAAAUCUGCCACAAAGCUUGAGAGCAUGUUCGGAUGCAUAGGCGGCUGCCUUCGGUGGCGAGAUAGCGCCAACGUUCUCUACUAUGACACGCAAAACGCGUGCUCCGUUGAAUAGAAUUUAUCAUG", "polymerase ribozyme fitness (log ratio)": "≤ -4.2"}, {"variant": "GGAUCUUCUCGAUCUAACAAAAAAGACAAAUCUGCCACAAAGCUUGAGAGCAUGUUCGGAUGCAGAGGCGGCAGCCUUCGGUGGCGCGAUAGCGCUAACGUUCUCAACUAUGACACGCAAAAGGCGUGCUCCGUUGAAUGGAGUUUAUCAUG", "polymerase ribozyme fitness (log ratio)": -1.53}, {"variant": "GGAUCUUCUCGAUCUAACAAAAAAGACAAAUCUGCCACAAAGCUUGAGAGCAUGUUCGGAUGCAGAGGCGGCAGCCUUCGGUGGCGCGAUAGCGGCAACGUUCUCAACUAUGACACGCAAAACGCGUGCUCCAUUGAAUGGAGUUUAUCAUG", "polymerase ribozyme fitness (log ratio)": "≤ -4.2"}, {"variant": "GGAUCUUCUCGAUCUAACAAAAAAGACAAAUCUGCCACAAAGCUUGAGAGCAUGUUCGGAUGCAGAGGCGGCAGCCUUCUGUGGCGCGAUAGCGCCAACGUUAUCAACUAUGACACGCAAAACGCGUGCUCCGUUGAAUGGAGUUUAUCAUG", "polymerase ribozyme fitness (log ratio)": "≤ -4.2"}, {"variant": "GGAUCUUCUCGAUCUAACAAAAAAGACAAAUCUGCCACAAAGCUUGAGAGCAUGUUCGGAUGCAGAGGCGGCAGCCUUCGGUGGCGCGAUAGCGCCAACGUUCUCAACUAUGAUACGCAAAACGCGUGCUCCGUUGAAUGGACUUUAUCAUG", "polymerase ribozyme fitness (log ratio)": -4.16}, {"variant": "GGAUCUUCUCGAUCUAACAAAAAAGACAAAUCUGCCACAAAGCUUGAGAGCAUGUUCGUAUGCAGAGGCGGCAGCCUUCGGUGGCGCGAUAGCGCCAACGUUCUCAACUAUGACACGCAAAACGCGUGCUCCGUCGAUUGGAGUUUAUCAUG", "polymerase ribozyme fitness (log ratio)": "≤ -4.2"}, {"variant": "GGAUCUUCUCGAUCUAACAAAAAAGACAAAUCUGCCACAAAGCUUGAGAGCAUGUUCGGAUGCAGAGGCGGCAGCCUUCGGUCGCGCGAUAGCGCCUUCGUUCUCAACUAUGACACGCAAAACGCGUGCUCCGUUGAAUGGAGUUUAUCAUG", "polymerase ribozyme fitness (log ratio)": -2.8}, {"variant": "GGAUCUUCUCGAUCUAACAAAAAAGACAAAUCUGCCACAAAGCUUGAGAGCAUGUUCGGAUGCAAAGGCGGCAGCCUUUGGUGGGGCGAUUGCGCCAACGUUCUCAACUAUGACACGCAAAACGCGUGCUCCGUUCAAUGGAGUUUAUCAUG", "polymerase ribozyme fitness (log ratio)": "≤ -4.2"}, {"variant": "GGAUCUUCUCGAUCUAACAAAAAAGACAAAUCUGCCACAAAGCUUGAGAGCAUGUUCGGAUGCAGAGGCGGCAGCCUUCGGUGGCGCGAUAGCACCAACGUUCUCAAAUAUGACACGCAAAACGUGUGCUCCGUUGAAUGGAGUUUAUCAUG", "polymerase ribozyme fitness (log ratio)": "≤ -4.2"}, {"variant": "GGAUCUUCUCGAUCUAACAAAAAAGACAAAUCUGCCACAAAGCUUGAGAGCAUGUUCGGAUGCAGAGGCGGCAGCCUUCGGUGGCGUGAUAGCGCCAACGUUCUCUACUAUGACACGCAAAACGCGUGCUCCGUUGUAUUGCGUUUAUCAUG", "polymerase ribozyme fitness (log ratio)": "≤ -4.2"}, {"variant": "GGAUCUUCUCGAUCUAACAAAAAAGACAAAUCUGCCACAAAGCUUGAGAGCAUGUUCGGAUGCAGAGGCGGCAGCCUUCGGUGGCGCGAUAGCGCCAACGUUCUCAACUAUGACAUGCAAAACGCGUGCUCCGUUGAAUGGAGUUUAUCAUG", "polymerase ribozyme fitness (log ratio)": -1.08}, {"variant": "GGAUCUUCUCGAUCUAACAAAAAAGACAAAUCUGCCACAAAGCUUGAGAGCAUGUUCGGAUGCAGAAGCGGCAGCCCUCGGUGGCGAGAUAGCGCCAAUGUUCUCAACUAUGACACGCAAAACGCGUGCGCCGUUGAAUGGAGUUUAUCAUG", "polymerase ribozyme fitness (log ratio)": "≤ -4.2"}, {"variant": "GGAUCUUCUCGAUCUAACAAAAAAGACAAAUCUGCCACAAAGCUUGAGAGCAUGUUCGGAUGCAGAGGCGGCAGCCUUCGGUGGCACGAUAGCGCCAACGUUCUCAACUAUGACACGCAUAACGCGUGCUCCGUUGAAUGGAGUUUAUCAUG", "polymerase ribozyme fitness (log ratio)": -2.8}, {"variant": "GGAUCUUCUCGAUCUAACAAAAAAGACAAAUCUGCCACAAAGCUUGAGAGCAUGUUCGGAUGCAGAGGCGGCAGCCUUCGGUGGCGCGAUAGCGCUAGCGUUCUCAACUAUGACACGCAAAACGCGUGCUCCGUUGAAUGGAGUUUAUCAUG", "polymerase ribozyme fitness (log ratio)": -1.19}]}]}
